Results taken from US20240115720A1, “ANTIBODY-PYRROLOBENZODIAZEPINE DERIVATIVE CONJUGATE” (MEMORIAL SLOAN KETTERING CANCER CENTER, priority 2021, published 2024).

How the values were obtained:
[1] = target: T1, Histidine-tagged DLL3 antigen (DLL3-His) (Homo sapiens, UniProt Q9NYJ7); experiment: Pairwise epitope binning, Carterra array SPR; settings: pairwise competition for binding to DLL3-His
T1 sequence (Q9NYJ7 27-479): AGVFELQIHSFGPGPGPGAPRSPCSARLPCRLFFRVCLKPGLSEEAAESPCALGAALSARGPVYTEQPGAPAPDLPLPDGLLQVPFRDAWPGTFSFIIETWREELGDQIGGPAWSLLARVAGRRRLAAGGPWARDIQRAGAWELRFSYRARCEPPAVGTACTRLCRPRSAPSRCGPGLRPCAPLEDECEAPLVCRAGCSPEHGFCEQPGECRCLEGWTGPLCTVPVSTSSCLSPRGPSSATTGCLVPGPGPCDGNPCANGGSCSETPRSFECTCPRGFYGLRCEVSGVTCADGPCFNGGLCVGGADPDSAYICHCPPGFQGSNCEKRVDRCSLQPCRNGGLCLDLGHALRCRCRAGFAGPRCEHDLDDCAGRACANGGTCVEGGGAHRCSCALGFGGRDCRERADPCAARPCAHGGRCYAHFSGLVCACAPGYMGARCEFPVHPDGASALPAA
Procedure: The panel of purified anti-DLL3 monoclonal antibodies and the reference monoclonal antibody were subjected to pairwise epitope binning on a Carterra® array surface plasmon resonance (SPR) assay platform (Carterra® Inc., Salt Lake City UT) where each monoclonal antibody was tested for the capture of Histidine-tagged DLL3 antigen (DLL3-His), and also for competing with every other antibody in the panel for the binding to DLL3-His. The antibodies were immobilized on a HC200M chip (ligand) through standard amine coupling techniques by the print array method. Then in each cycle antigen was injected across the entire array followed by a single antibody (analyte). At the end of each cycle the surface was regenerated to remove antigen and analyte before a new cycle started. As shown in the Table below, three different bins were identified with the panel with 7-I1-B and 2-C8-A mapping to bin 2 while 6-G23-F was in bin 3 and 10-O18-A was in bin 1.

DLL1 = target: T2, DLL1 (Homo sapiens, UniProt O00548); experiment: Selectivity of binding among delta-like ligands (FIG. 11)
T2 sequence (O00548 18-723): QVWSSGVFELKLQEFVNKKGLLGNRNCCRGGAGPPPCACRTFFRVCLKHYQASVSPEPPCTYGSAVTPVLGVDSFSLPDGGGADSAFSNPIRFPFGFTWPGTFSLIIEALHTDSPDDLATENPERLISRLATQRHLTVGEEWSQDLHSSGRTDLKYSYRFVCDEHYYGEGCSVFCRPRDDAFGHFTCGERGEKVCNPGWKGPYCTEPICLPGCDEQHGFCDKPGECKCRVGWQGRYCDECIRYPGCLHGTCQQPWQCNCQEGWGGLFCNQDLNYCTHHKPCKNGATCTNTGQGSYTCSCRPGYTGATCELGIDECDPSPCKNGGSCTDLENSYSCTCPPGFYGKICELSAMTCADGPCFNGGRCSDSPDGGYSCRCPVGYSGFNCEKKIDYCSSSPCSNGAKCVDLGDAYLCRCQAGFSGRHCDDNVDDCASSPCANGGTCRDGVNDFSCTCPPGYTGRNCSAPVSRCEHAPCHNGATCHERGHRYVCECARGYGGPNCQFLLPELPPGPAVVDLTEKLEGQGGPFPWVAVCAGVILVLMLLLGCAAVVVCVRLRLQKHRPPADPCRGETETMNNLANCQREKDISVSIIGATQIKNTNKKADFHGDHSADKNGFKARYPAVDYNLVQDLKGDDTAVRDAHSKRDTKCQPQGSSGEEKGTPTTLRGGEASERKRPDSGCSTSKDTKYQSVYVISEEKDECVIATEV

DLL3 [2] = target: T3, DLL3 (Homo sapiens, UniProt Q9NYJ7); experiment: 4/37 internalization assay (staining at 4° C. versus 37° C., flow cytometry); format: cell-based; design: endogenous in cells; host or cells: NCI-H82; settings: NCI-H82 cells, compared with reference monoclonal antibody SC16
T3 sequence (Q9NYJ7 27-618): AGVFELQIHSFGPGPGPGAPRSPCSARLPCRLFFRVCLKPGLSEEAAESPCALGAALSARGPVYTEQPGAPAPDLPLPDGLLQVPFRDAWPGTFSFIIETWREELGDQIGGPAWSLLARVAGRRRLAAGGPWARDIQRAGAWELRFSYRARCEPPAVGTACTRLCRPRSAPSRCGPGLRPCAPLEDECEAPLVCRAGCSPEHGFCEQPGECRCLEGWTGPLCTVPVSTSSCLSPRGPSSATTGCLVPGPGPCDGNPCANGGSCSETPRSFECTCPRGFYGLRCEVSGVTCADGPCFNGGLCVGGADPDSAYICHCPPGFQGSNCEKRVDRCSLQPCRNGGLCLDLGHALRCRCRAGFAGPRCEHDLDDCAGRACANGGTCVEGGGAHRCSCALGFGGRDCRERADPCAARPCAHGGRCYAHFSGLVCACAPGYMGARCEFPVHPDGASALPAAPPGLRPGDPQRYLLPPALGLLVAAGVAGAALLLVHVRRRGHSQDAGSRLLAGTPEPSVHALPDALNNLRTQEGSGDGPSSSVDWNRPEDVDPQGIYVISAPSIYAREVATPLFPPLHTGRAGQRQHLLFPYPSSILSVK
Procedure: The four monoclonal antibodies (6-G23-F, 2-C8-A, 7-I1-B and 10-O18-A) were compared for their ability to internalize DLL3 by comparing the staining at 4° C. with that at 37° C. A reference monoclonal antibody SC16, which is known to internalize via DLL3 and to have ADC activity, and which was previously reported in the literature, was used as the positive control for internalization. NCI-H82 cells in exponential growth were harvested with trypsin/EDTA, washed once in RPMI containing 10% fetal calf serum (FCS) and resuspended in DMEM supplemented with 10% FCS at 2×10^7 cells/ml. 100 μl (2×10^6 cells) were added to U bottom 96 well plates. The test monoclonal antibodies (6-G23-F, 2-C8-A, 7-I1-B or 10-O18-A) or the reference monoclonal antibody were added to separate wells to give a final concentration of 10 μg/ml in duplicate plates. […] After 30 minutes incubation at 4° C. the cells were washed three times in cold wash buffer and either fixed in PBS 0.5% paraformaldehyde and analyzed by flow cytometry within 48 hours. The mean fluorescent intensity (MFI) ratios calculated by dividing the MFI obtained from the control plate (which incubated with the antibodies at 4° C.) by the corresponding MFI obtained from the experimental plate (which incubated with the antibodies at 37° C.) was taken as a relative measure of internalization. […]

DLL3 [3] = target: T3, DLL3; experiment: Selectivity of binding among delta-like ligands (FIG. 11)
DLL4 = DLL4 (Homo sapiens, UniProt Q9NR61); experiment: as above
Sequence of DLL4 (Q9NR61 27-685): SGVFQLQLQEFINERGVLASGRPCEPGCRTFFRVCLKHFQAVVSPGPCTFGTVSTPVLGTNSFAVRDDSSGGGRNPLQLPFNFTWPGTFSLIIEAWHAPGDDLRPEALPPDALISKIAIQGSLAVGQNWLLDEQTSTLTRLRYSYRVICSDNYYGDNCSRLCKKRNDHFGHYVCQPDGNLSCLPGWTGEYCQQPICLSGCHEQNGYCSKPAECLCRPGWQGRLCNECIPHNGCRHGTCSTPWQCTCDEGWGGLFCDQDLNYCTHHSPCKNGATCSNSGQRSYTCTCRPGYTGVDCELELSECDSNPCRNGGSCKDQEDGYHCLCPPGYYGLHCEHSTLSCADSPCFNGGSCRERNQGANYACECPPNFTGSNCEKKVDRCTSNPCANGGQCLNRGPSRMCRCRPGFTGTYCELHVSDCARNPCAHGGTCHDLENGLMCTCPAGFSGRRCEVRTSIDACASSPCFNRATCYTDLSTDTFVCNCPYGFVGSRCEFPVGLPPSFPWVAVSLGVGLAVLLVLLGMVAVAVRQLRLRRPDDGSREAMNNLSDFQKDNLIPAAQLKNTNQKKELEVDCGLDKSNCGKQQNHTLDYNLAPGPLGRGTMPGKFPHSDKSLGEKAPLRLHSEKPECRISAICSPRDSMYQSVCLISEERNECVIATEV

293 (negative control) = experiment: Flow cytometry binding to 293 cells (negative control); settings: 10 μg/ml
Procedure: The four monoclonal antibodies (6-G23-F, 2-C8-A, 7-I1-B and 10-O18-A) were tested for their ability to bind to mouse and cynomolgous DLL3 as well as endogenous human DLL3 by flow cytometry. For this purpose, HEK293 cells were transfected with plasmid DNA encoding full-length human, mouse or cynomolgous DLL3 and used in the experiment. Briefly […] transfected HEK293 cells or NCI-H82 primary cells were added in FACS buffer PBS 0.5% BSA to the wells of a 96 well U bottom plate and purified monoclonal added to 10 μg/ml. After 30 minutes incubation at 4° C. the cells were washed 3 times in FACS buffer and incubated with a PE labelled F(ab)2 anti-mouse IgG H and L 2nd stage. After another 30 minutes incubation at 4° C. the cells were washed three times in FACS buffer and analyzed on the flow cytometer. Data are presented at the ratio of the Mean Fluorescent Intensity for the monoclonal divided by the background staining with the 2nd stage.

B1: 2-C8-A: anti-DLL3 monoclonal antibody, VH SEQ ID NO: 12 and VL SEQ ID NO: 17 (antibody, V domains shown)
VH: EVQLVESGGGLVQPGGSQRLSCAASGFTFSSYWMNWVRQAPGKGLEWVANIKEDGSEKYYVDSVKGRFTISRDNAKNSLYLQMNSLRAEDTAVYYCARDPGWAPFDYWGQGTLVTVSS
VL: DIQMSQSPSSLSASVGDRVTITCRASQGISNYLAWFQQKPGKAPKSLIYAASSLQSGVPSKFSGSGSGTDFTLAISSLQPEDFATYYCQQYNSFPYTFGQGTTLEIK
[1]
  Epitope Bin: 2
DLL1
  binding to DLL1: not DLL1 or DLL4
DLL3 [2]
  ability to internalize DLL3: able to internalize on binding DLL3 but not to the extent of the reference monoclonal antibody
DLL3 [3]
  binding to DLL3: selectively bind DLL3
DLL4
  binding to DLL4: not DLL1 or DLL4
293 (negative control)
  293 (negative control) (ratio of MFI for the monoclonal divided by background staining with the 2nd stage): 0.59
